Data: paper PMC9396825

T1: Pan1-FKBP (yeast Eps15-like protein Pan1p with a C-terminal FKBP tag) (yeast), P32521
T1 chain: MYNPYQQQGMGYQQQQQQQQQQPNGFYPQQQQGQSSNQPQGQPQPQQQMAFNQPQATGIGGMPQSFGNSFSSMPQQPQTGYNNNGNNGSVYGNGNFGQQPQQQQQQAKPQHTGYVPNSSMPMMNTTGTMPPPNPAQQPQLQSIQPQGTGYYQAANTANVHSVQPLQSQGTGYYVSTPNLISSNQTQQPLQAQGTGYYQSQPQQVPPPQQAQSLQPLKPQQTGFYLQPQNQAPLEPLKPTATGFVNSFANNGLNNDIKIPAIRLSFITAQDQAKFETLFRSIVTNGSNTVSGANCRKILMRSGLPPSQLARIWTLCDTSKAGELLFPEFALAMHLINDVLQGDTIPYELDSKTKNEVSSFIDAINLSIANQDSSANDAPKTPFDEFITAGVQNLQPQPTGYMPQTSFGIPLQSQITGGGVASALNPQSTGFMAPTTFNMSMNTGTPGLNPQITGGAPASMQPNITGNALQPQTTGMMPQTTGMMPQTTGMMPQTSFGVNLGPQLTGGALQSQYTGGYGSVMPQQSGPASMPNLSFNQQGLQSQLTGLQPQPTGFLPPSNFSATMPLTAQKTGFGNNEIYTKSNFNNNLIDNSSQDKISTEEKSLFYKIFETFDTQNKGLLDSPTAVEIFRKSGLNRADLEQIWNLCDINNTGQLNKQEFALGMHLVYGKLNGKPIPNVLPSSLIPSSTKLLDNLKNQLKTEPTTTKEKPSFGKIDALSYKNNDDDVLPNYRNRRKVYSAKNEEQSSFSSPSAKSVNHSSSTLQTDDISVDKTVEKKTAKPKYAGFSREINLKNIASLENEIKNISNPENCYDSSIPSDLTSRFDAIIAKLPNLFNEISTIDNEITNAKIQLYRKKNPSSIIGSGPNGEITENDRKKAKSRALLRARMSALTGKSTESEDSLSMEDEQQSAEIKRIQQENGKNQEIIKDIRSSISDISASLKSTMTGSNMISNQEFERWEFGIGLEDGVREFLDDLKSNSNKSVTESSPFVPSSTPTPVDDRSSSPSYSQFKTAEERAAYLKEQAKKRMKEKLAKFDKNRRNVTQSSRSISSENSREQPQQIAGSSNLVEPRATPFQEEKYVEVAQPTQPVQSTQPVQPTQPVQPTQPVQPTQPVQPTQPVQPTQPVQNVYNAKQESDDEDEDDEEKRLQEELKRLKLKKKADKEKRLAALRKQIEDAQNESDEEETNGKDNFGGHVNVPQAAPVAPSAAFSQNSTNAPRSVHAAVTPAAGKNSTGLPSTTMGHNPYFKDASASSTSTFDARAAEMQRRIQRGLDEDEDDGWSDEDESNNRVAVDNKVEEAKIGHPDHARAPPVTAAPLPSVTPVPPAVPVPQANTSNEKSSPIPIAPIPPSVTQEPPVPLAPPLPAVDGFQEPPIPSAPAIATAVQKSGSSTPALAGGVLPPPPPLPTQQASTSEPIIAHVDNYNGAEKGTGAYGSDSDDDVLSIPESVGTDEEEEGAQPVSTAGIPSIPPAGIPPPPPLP


What was measured:
[1] = molecular target: Pan1-FKBP (yeast Eps15-like protein Pan1p with a C-terminal FKBP tag) (yeast) (UniProt P32521); experiment: inducible peroxisome redistribution assay
[2] = molecular target: T1, Pan1-FKBP (yeast Eps15-like protein …); experiment: inducible peroxisome redistribution assay; details: remark: other sources report otherwise

Molecule	percent localized to the peroxisome [1] [%]	percent localized to the peroxisome [2] [%]
Ent1-GFP (from UniProt Q12518 1-454) (natural protein)	64	–
GFP-fused Sla2p (from UniProt P33338 1-968) (natural protein)	72	–
GFP-tagged Ent2p (from UniProt Q05785 1-613) (natural protein)	66.7	–
Sla1-GFP, P32790 1-1244 (natural protein) MTVFLGIYRAVYAYEPQTPEELAIQEDDLLYLLQKSDIDDWWTVKKRVIGSDSEEPVGLVPSTYIEEAPVLKKVRAIYDYEQVQNADEELTFHENDVFDVFDDKDADWLLVKSTVSNEFGFIPGNYVEPENGSTSKQEQAPAAAEAPAATPAAAPASAAVLPTNFLPPPQHNDRARMMQSKEDQAPDEDEEGPPPAMPARPTATTETTDATAAAVRSRTRLSYSDNDNDDEEDDYYYNSNSNNVGNHEYNTEYHSWNVTEIEGRKKKKAKLSIGNNKINFIPQKGTPHEWSIDKLVSYDNEKKHMFLEFVDPYRSLELHTGNTTTCEEIMNIIGEYKGASRDPGLREVEMASKSKKRGIVQYDFMAESQDELTIKSGDKVYILDDKKSKDWWMCQLVDSGKSGLVPAQFIEPVRDKKHTESTASGIIKSIKKNFTKSPSRSRSRSRSKSNANASWKDDELQNDVVGSAAGKRSRKSSLSSHKKNSSATKDFPNPKKSRLWVDRSGTFKVDAEFIGCAKGKIHLHKANGVKIAVAADKLSNEDLAYVEKITGFSLEKFKANDGSSSRGTDSRDSERERRRRLKEQEEKERDRRLKERELYELKKARELLDEERSRLQEKELPPIKPPRPTSTTSVPNTTSVPPAESSNNNNSSNKYDWFEFFLNCGVDVSNCQRYTINFDREQLTEDMMPDINNSMLRTLGLREGDIVRVMKHLDKKFGRENIASIPTNATGNMFSQPDGSLNVATSPETSLPQQLLPQTTSPAQTAPSTSAETDDAWTVKPASKSESNLLSKKSEFTGSMQDLLDLQPLEPKKAAASTPEPNLKDLEPVKTGGTTVPAAPVSSAPVSSAPAPLDPFKTGGNNILPLSTGFVMMPMITGGDMLPMQRTGGFVVPQTTFGMQSQVTGGILPVQKTGNGLIPISNTGGAMMPQTTFGAAATVLPLQKTGGGLIPIATTGGAQFPQTSFNVQGQQQLPTGSILPVQKTANGLISANTGVSMPTVQRTGGTMIPQTSFGVSQQLTGGAMMTQPQNTGSAMMPQTSFNAVPQITGGAMMPQTSFNALPQVTGGAMMPLQRTGGALNTFNTGGAMIPQTSFSSQAQNTGGFRPQSQFGLTLQKTGGIAPLNQNQFTGGAMNTLSTGGVLQQQQPQTMNTFNTGGVMQELQMMTTFNTGGAMQQPQMMNTFNTDGIMQQPQMMNTFNTGGAMQQPQQQALQNQPTGFGFGNGPQQSRQANIFNATASNPFGF	–	63.3
